According to paper PMC8848936 (RNA, 2022):

Target: T1, Tsr1–TAP (S. cerevisiae, UniProt Q07381 1-788)
T1 sequence (looked up): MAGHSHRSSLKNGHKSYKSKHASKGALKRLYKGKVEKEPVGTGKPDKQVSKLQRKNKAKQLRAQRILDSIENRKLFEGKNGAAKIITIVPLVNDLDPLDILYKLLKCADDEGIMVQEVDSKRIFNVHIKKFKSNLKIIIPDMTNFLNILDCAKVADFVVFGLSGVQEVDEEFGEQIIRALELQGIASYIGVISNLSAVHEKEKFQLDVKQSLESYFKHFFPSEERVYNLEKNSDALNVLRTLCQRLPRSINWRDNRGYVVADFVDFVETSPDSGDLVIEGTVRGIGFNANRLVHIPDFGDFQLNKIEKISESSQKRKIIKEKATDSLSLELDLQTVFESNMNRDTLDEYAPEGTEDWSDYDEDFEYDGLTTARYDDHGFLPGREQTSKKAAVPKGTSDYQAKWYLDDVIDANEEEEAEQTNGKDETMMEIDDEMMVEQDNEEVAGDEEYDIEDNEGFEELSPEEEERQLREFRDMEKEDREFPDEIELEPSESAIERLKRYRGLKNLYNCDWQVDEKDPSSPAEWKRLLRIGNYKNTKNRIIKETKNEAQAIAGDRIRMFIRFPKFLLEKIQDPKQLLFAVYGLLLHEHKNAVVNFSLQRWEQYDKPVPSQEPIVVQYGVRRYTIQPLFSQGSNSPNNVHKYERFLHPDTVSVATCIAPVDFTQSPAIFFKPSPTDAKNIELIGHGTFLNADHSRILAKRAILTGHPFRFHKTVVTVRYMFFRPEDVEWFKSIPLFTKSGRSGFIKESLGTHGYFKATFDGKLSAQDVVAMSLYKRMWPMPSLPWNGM
Experiment: co-sedimentation

binding result: binds
B1: recombinant Rio2 (Rio2-HA) (natural protein, yeast, UniProt P40160 1-425, looked up)
chain: MKLDTSHMRYLTTDDFRVLQAVEQGSRSHEVVPTPLIHQISGMRSQSGTNRAISDLAKLSLISKMRNVKYDGYRLTYNGIDYLALKTMLNRDTVYSVGNTIGVGKESDIYKVSDKNGNPRVMKIHRLGRTSFHSVRNNRDYLKKSNQGANWMHLSRLAANKEYQFMSMLYSKGFKVPEPFDNSRHIVVMELIEGYPMRRLRKHKNIPKLYSDLMCFIVDLANSGLIHCDFNEFNIMIKDKLEDENDCGFVVIDFPQCISIQHQDADYYFQRDVDCIRRFFKKKLKYEPKPDSSMLDTEGFGDGYKYAYPDFKRDVKRTDNLDELVQASGFSKKHPGDRGLETAVESMRNAVYNSDDDMSNDEAEEENGEGDYSEEDEYYDSELDNESSEDDSEDAQEEENERIIEALSSGVENLKMDKLGNYILE
